Assay results from patent publication US20210221886A1.

Biological target: human CD47 antigen (human) (UniProt Q08722)
Assay: flow cytometry on human red blood cells at the maximal binding concentration; reference Hu5F9

anti-CD47 IgG4 AO-176 (antibody)
percent reduction of RBC binding with respect to Hu5F9: 80%
